The data set can be described thus: soluble on expression in E. coli; label from the status in PepcDB or PDB records.
Take “MGSDKIHHHHHHMNFLAHLHLADNSKTDLAANLAGDFAKGNIADHPKALQQGIWLHRQIDSLTDSHELTKELKAAFPKTLQRAAPILIDLAFDHMLAKYWEEYHHLSLPDFAQQAYLALSSAEQLPVNLSDLIIRMRQENWLIAYESREGLNQTIKAVSKRVSKPEIFDGAIDTVKRMDTEIEIAFRTFYPQLMAYSRIWTRQTPPEFL”: the “soluble on expression in E. coli” value was “not soluble”.

Consider “MAIVLLVLHVCTGLRGSPVSGRVRMAVDSGIYLAPCSNNDAQEHLKRTVINGVDRDDYGQYTNVGFGDSVSIWGVKGGNESHWQDIDAGDYLFFYTGDETYSQVAEVLATDQNEGLAEHLWPGFEDTWEFIIYLNEPIPVNIDSNEIADYAGYKQNYILGFQSLRGSAVDEINDEYGSIEGYINANRTDGNHIQTSGGSQDPDEGDDSVVDEVLDEADRDEEAYANIARQLEEVGQVVFYGPPGTGKTYNAQQFARWWLHNLQSEPRESQVRSVTFHPSYTYEDFIEGLTANATENSVSYDIKPGKFKAICEDARVAYQETGPNEEPPRYVLLIDEINRGNLAQIFGETITLLEEDKRGTLHVDLAHSGGSFTIPPNLYVIGTMNTADRSVALVDAALRRRFRFIDFPPDYGVARSRFGFDTEYDLTSAARGERSDLEQLQALSIQAVEQLNETIIELPDLGKGKQIGHSYLLVDPDDEQALVDAWRYEILPLLEEYFYGQLSRIRQELFNQNGDSLVDWEREQIKDFDPETLRESLQAIVNAGLEHHHHHH”, for which the “soluble on expression in E. coli” value is on record as “not soluble”. For “MTDQIKTDNARSKAEQLPLAFSHQSASGREDLLVSASLAAAVSLVDEWPNWPSPVVVLAGPPGSGKSHLANIWKNISDARDIHPEAGADAARAAETGPVLFEDADRRGFDDTELFHVINSVRQHGTTLLMTSRQWPAAWPVTLPDLRSRLKAVTVVETGEPDEGLLAQVLVKLFADRQLYMDDKLIGYIVNRMERSLDTAQTIVEQIDHLALSRATRITRPLVAEVLNAMDKAAAGDGSDID”, the “soluble on expression in E. coli” value is listed as “not soluble”. For “GSHMRSRRVDVMDVMNRLILAMDLMNRDDALRVTGEVREYIDTVKIGYPLVLSEGMDIIAEFRKRFGCRIIAAFKVADIPETNEKICRATFKAGADAIIVHGFPGADSVRACLNVAEEMGREVFLLTEMSHPGAEMFIQGAADEIARMGVDLGVKNYVGPSTRPERLSRLREIIGQDSFLISPGVGAQGGDPGETLRFADAIIVGRSIYLADNPAAAAAGIIESIKDLRIPEDPAANKARKEAELAAATAEQ”, the “soluble on expression in E. coli” value was “soluble”. For “MAKNTSCGVQLRIRGKVQGVGFRPFVWQLAQQLNLHGDVCNDGDGVEVRLREDPEVFLVQLYQHCPPLARIDSVEREPFIWSQLPTEFTIR”, the “soluble on expression in E. coli” value is on record as “soluble”. Regarding “MGSDKIHHHHHHVTIEIRQLRYALMSADLRSFSGAASRLNVKQATLSRSVLQLEDRLGIKLFERTTRGAEPTETGKVFLETARRIITDLENLQTTARAVSYGEQGRFAVGYCSSLMAGHLKAAFSDYLTRFPDVQFDGVEGDPDKLCSDLRAGTIDVAIAPLGSEEQGIASRPVWSERLVAALYPEHPLLEASRIYWGDLRREIFVVPRKGIGQMIRNMITARLTGQGYRPNIITQETSLESVLSMVPVGRFITIATEASMGVAWPELQFRDIYDNGGTARIDFALYWREDNENPALQRFFTMINERYPA”, the “soluble on expression in E. coli” value is “not soluble”. For the sequence “MGSDKIHHHHHHMTPSTPTLATRWEPLPPRVVAELLGPSSARWWLSGGVALDHWLGTNTREHDNIDVSTTIADLPQVVQDLPAPFSAWAPSGDGVVPWAEADMDADLQPIRIHDDATGAWVMQVDVEDGTDSLWVYRRDPRLQLPWDRAVIDVDGIPTGAPEVQLVWKALRPRPEDDADKDAVLPELSNEARAWWEHAILTIHPHSSWSIHVRTPFAPGKASWNRTRR”, the “soluble on expression in E. coli” value was “not soluble”.

In the case of “MDAALRRLQTFLSTIPQCDHTKYEGHYQQVFYIIFSLLGYYVDVEVRTSRGRVDVVLRTEATLYVMELKLDKNATVAMEQINLKNYPERFALCGLPVVKVAVNFDSESGTLGDWMIEK”, the “soluble on expression in E. coli” value is given as “not soluble”. On to “MEIKTTTTLHRVVEETTKPLGATLVVETDISRKDVNGLARGHLVDGIPLCTPSFYADIAMQVGQYSMQRLRAGHPGAGAIDGLVDVSDMVVDKALVPHGKGPQLLRTTLTMEWPPKAAATTRSAKVKFATYFADGKLDTEHASCTVRFTSDAQLKSLRRSVSEYKTHIRQLHDGHAKGQFMRYNRKTGYKLMSSMARFNPDYMLLDYLVLNEAENEAASGVDFSLGSSEGTFAAHPAHVDAITQVAGFAMNANDNVDIEKQVYVNHGWDSFQIYQPLDNSKSYQVYTKMGQAKENDLVHGDVVVLDGEQIVAFFRGLTLRSVPRGALRVVLQTTVKKADRQLGFKTMPSPPPPTTTM”, for which the “soluble on expression in E. coli” value is “soluble”. As for “MEYRMFDIGVNLTSSQFAKDRDDVVACAFDAGVNGLLITGTNLRESQQAQKLARQYSSCWSTAGVHPHDSSQWQAATEEAIIELAAQPEVVAIGECGLDFNRNFSTPEEQERAFVAQLRIAADLNMPVFMHCRDAHERFMTLLEPWLDKLPGAVLHCFTGTREEMQACVAHGIYIGITGWVCDERRGLELRELLPLIPAEKLLIETDAPYLLPRDLTPKPSSRRNEPAHLPHILQRIAHWRGEDAAWLAATTDANVKTLFGIAF”, the “soluble on expression in E. coli” value is “soluble”.

As for “PFSFFHWIFIHPESHTESEISEIITHEETHARQYHSADVLVSEIMCTFCWFNPFVWLMKREVRGNLEYMADHRVLETGHDSKSYQYHLL”, the “soluble on expression in E. coli” value is on record as “not soluble”. On to “MTQLWVERTGTRRYIGRSTRGAQVLVGSEDVDGVFTPGELLKIALAACSGMASDQPLARRLGDDYQAVVKVSGAADRDQERYPLIEETMELDLSGLTEDEKERLLVVINRAVELACTVGRTLKSGTTVNLEVVDVGA”, for which the “soluble on expression in E. coli” value is given as “not soluble”. Under “MRGSHHHHHHGSEEASSTGRNFNVEKINGEWHTIILASDKREKIEDNGNFRLFLEQIHVLEKSLVLKFHGRVRLLNNWDCSELSMVADKTEKAGEYSVTYDGFNTFTIPKTDYDNFLMAHLINEKDGETFQLMGLYGREPDLSSDIKERFAQLCEEHGILRENIIDLSNANRCLQARE” stands “soluble”; under “HGTSDATLLKGVGHLYGTALPVGGLGTRSVLTAHSGIQKSTFFDNLEKVKKGDAIYVRNIGETLKYQVRDIEIIRPAEIDRIQPIPDRDLITLVTCTPYGINTHRLLVTAERVPMEPGEADRAFAGDGIVWQWWMK”, “not soluble”.

As for “KFTLGQFFGAAKIAGKAFMFKADEPEDLIAKIVEMADAARKGGFLALEEMEINNSFMQKGIDLLVDGHDADVVRAALQKDIALTDERHTQGTGVFRAFGD”, the “soluble on expression in E. coli” value is “not soluble”. With “MAHHHHHHMSRTLTTTQPSVASSPASSSSGSTHQRPSADQLAETVHQMDEENALEFVSIDATSRDQVFHFLHDHPDATAVVNAVGLLTRNYEDARQVNGDVMTNIAAGVFHPKLAQSVQKVVYVSAEPYNLYSRRILGSKHLLKGYFHGKRIGEKAVLENLGNKGVVLRPSFIYGTRHVLVASAMNPDAVSTLSLPLGWIGLPLDKLLTAIGGGKLLMPPVCVDVVAEAAVRACAWANQPGKDIHGICDVYRMRDICNAVDPSLHEDRNGTVTASTASKEASTVKNDR”, the “soluble on expression in E. coli” value was “not soluble”. Consider “MGSDKIHHHHHHMATETRVASLPSIDAAALAAIEGCALVDLLLPDTNGVLRGKRVTREALDKVYRDGVCLPMSLIATDITGNTVEETGLGYAIGDADRICRPIAGSLRPVPWAPQPMAQLLLAMHTPNGALFEVAPRAVLQRVVQGFAALGLTPVIAVELEFYLFDAMADAQGRPQTPRDAHTGERNTSTQVYALQDLDDHRSFTDAVTAACRQQGIPADTAVAEYAPGQFEINLQHRADAVAACDEALLLKRTIKAIAQQQHLLASFMAKPFAGQAGSGLHVHVSLLDAAGHNVLHGTADAPAAALRHAIAGLQRHADASLLLFAPHANSYRRFVPNAFVPLDASWGFNNRTVALRIPHSDAHNTRIEHRIAGADANPYLVAAAVLAAMLDGLQHPGDPTAPVQGNAYAQATFTPRTWQGAVDAFLRSDFIATQLGTQFQHVFGQQKQRELLDYQALVPDLDYARYLRTV”, for which the “soluble on expression in E. coli” value is on record as “not soluble”.

Turning to “MSLEAVIFDMDGVLMDTEPLYFEAYRRVAESYGKPYTEDLHRRIMGVPEREGLPILMEALEIKDSLENFKKRVHEEKKRVFSELLKENPGVREALEFVKSKRIKLALATSTPQREALERLRRLDLEKYFDVMVFGDQVKNGKPDPEIYLLVLERLNVVPEKVVVFEDSKSGVEAAKSAGIERIYGVVHSLNDGKALLEAGAVALVKPEEILNVLKEVLEGHHHHHH”, the “soluble on expression in E. coli” value is reported as “soluble”. For “MNNDNKRSAGGLGLVGDIGGTNARFALWRGQRLESIEVLACADYPRPELAVRDYLARIGESVANIDSVCLACAGPVGAADFRFTNNHWVINRAAFREELGLDHLLLVNDFSTMAWAASRLGADELVQVRAGSAQADRARLIIGPGTGLGVGSLLPLGGGRWEVLPCEGGHVDLPVTSPRDFALWQGLQARYGHVSAERALSGNGLLALYEISCALDGVAVRASSAAEVGALAMAGDAQADAVLEHFFLWLARVAGNAVLTVGALGGVYITGGIVPRFLERFIASGFAEAFASRGKTSGAYLQDVPVWVMTAEHPGLLGAGVALQQALDAEG”, the “soluble on expression in E. coli” value is given as “not soluble”. With “MSTKPAAAKTKPSCSEGGDLRVETENGETFITATQRADGTWRKARRVKGGYIPQDEQPKYQNKMQLEATNGRSSVPAGVNPRAMASGSSRKPVSAIKANVCITPQDHFQKKIDLTKKKIEDIEGMESRIASGELVPQPNQVKKIARKQEYLDEIEKLTLEMKKL” the entry was “not soluble”; with “MGSDKIHHHHHHMHLGKINEDVFNKVIYPHLGERRKEVVVGPQHGVDTGAIDLQDGRVLVVKTDPVFIVPQFGFKKAAWFAVHILASDVMTSGIPPEYAVIDLNLPPRIKDEEFEEMWIGIHEALKEIGVMVVGGHTGVYEGTDYPMVGGFTMFGIGEKERLGMPSKVKVGDSVIMTKGPAIEATGLLTNLYPEYFKQRLSNEIFNEAYNMYWKMSCWKDGLIASRIGIHMMHDATEGGVFGALTEVARASSKGMRIYEERFFINRAVREVTKLVNIDPWISISEGTMIIVTDKGEEVRNTLIREGIEAEIIGEIVDQSGEVTMVKKDGSRVKIEHPLEDPFWRAFFDLASKT”, “not soluble”. For “MAHHHHHHMEKDDHYKTSEKYEICTSFENIGIDEGLLRGIYAYGFEKPSAIQQRGIKPILNGRDVILQSQSGTGKTCVFAVGALNCVNRNLNETQVIILSPTRELAEQTQKVCLALADYIHVTIYCCIGGKKMSDDIKALNNGVHVISGTPGRIYHMLNLRHLKCKYIKQLVIDEADEMLNKGFKEQVYDIYRFLSPNTQIILSSATLPQEVLEITNKFMHKPVKILVKRDELTLEGIKQFFVSIEKEQWKYETLADLYESLTITQAVVFCNTQMKVDWLTKKMLESNFTVCKMHAGMSQSERDDIMLKFRQCKFRVLISTDIWGRGLDVQEVSLVVNYDLPNSRESYIHRIGRSGRFGRKGVAINFVKNDDIKILRDIEQYYSTQIDEMPMNITELL”, the “soluble on expression in E. coli” value was “not soluble”.

For the sequence “MSDPLLQLISTGLGLWIRSRCDQVGDLDLTLQGSSLGLMRGRLQGAVLSARDVRFEGLPLHHAEISSGPIQLDLTWLRPGRMLALKDPFQVKGTVSMPGQPLGDALLSERWRELGDWIAEQLMGLKPLGQLRIENDELELVASVAAQRDPIRKRFRLRAEAGTVVLSASDSPETRAVLPMDPAITITDATLGAGLLTLQGHAIVTPE”, the “soluble on expression in E. coli” value is “not soluble”.

The values above are taken from the DeepSol protein solubility set.
